Assay results published in publication PMC12678531, “Cytosolic TOP3α facilitates mitochondrial DNA sensing by cGAS”.

Biological target: cGAS (Homo sapiens, UniProt Q8N884 1-522)
Assay: EMSA; 300 pmol protein, 50 pmol DNA in 10 uL; EMSA: Beyotime GS005 binding buffer, 37 C, 15 min, 10 uL, 6% PAGE in TBE at 4 C; extract pull-down: 50 mM Tris-HCl pH 7.5, 150 mM NaCl, 0.025% digitonin
Conditions: protein: recombinant; tags: C-terminal LE-6xHis; chain copies: 2; label: none for EMSA (GelRed stain); blunt

Chain of cGAS (Q8N884 whole entry): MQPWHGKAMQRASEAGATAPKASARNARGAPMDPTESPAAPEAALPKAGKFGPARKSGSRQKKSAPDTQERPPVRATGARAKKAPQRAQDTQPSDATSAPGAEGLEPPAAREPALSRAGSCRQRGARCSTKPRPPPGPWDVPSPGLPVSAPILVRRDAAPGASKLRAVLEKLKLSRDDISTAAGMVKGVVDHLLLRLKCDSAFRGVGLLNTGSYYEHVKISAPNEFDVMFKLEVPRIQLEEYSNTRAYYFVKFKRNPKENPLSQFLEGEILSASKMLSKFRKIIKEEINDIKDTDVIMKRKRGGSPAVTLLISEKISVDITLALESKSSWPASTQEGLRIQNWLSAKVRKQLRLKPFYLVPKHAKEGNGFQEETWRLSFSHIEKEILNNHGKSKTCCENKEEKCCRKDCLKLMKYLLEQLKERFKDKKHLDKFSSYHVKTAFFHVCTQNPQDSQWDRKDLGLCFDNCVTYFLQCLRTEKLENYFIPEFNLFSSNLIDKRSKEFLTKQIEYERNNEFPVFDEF

B1: DNA2 (30 bp) (dsDNA)
DNA 1: CCGAAACCAGACGAGCTACCTAAGAACAGC
DNA 2: GCTGTTCTTAGGTAGCTCGTCTGGTTTCGG
B1: binds.
